Earlier results, collected in paper PMC2774623.
pKd: −log10 of the molar value.

Molecular target: CK2 alpha (Homo sapiens) (UniProt P68400)
Test: SPR

Sequence of CK2 beta (P67870 2-215): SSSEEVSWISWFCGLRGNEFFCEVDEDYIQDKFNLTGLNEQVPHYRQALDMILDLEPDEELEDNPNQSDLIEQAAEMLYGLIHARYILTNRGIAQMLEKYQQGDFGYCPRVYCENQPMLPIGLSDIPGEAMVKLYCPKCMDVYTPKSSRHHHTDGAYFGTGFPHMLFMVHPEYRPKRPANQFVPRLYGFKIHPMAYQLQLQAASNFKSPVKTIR
Sequence of CK2 alpha (Homo sapiens) (P68400 whole entry): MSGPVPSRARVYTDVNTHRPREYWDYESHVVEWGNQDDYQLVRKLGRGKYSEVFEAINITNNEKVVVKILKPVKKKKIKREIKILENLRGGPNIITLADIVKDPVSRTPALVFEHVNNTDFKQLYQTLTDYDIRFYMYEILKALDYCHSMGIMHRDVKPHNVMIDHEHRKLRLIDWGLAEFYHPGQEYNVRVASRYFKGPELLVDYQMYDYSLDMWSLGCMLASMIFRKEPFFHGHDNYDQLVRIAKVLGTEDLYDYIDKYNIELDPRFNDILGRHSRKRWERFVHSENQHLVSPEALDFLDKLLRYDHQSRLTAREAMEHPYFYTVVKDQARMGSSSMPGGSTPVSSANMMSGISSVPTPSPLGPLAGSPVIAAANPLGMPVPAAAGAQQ

Substance: CK2 beta (from UniProt P67870)
- pKd: 7.39
